Measured values reported in US20250361544A1, “TYPE III-D CRISPR-CAS SYSTEM AND USES THEREOF” (BOARD OF REGENTS, THE UNIVERSITY OF TEXAS SYSTEM, published 2025).

Legend:
[1] = biological target: T1, Csx19 subunit of the Synechocystis sp. PCC 6803 Type III-Dv complex (Synechocystis sp. PCC 6803); assay: cryo-EM structure of the binary complex, 2.5 Å
T1 construct: Untagged, co-expressed from pPF2434 in E. coli; one copy in the complex
T1 chain: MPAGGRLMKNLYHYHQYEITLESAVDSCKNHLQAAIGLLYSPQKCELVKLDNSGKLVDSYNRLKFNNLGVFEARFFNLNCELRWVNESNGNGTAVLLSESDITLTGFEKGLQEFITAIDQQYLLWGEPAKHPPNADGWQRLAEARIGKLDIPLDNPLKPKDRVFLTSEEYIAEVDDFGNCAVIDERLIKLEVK
Description: Fully assembled Type III-D binary complex was diluted to a concentration of 0.3 mg/ml in SEC buffer before 2.5 μl of sample was added to a quantifoil 1.2/1.3 grid that was glow discharged for 1 minute. Sample was applied to the grid in an FEI Vitrobot MarkIV kept at 100% humidity and 4° C. before blotting for 5.5 seconds with a force of 0. For the ssRNA target-bound complex, non-self ssRNA was mixed with the binary complex with a 2:1 molar ratio of RNA:Binary complex in SEC buffer to a final protein concentration of 0.3 mg/mL. Grids of the target-bound complex were frozen identical to that of the binary complex. Both grids were loaded to an FEI Titan Krios (Sauer Structural Biology Lab, University of Texas at Austin) operating at 300 kV. Images were taken at a pixel size of 0.81 Å/pixel with a dose rate of 10.6 e⁻/pixel/s for 5 seconds using a Gatan K3 direct electron detector, giving a final dosage of 80.5 e⁻/Å². Data collection was automated using SerialEM using a defocus range of −1.2 to −2.2 μm.
To delineate the architecture of this Type III-Dv effector, we used cryo-EM to determine a 2.5-Å resolution structure of the complex containing the nt crRNA (FIG. 1e,f, FIG. 8). To gain preliminary insights, we generated initial models of each subunit using Alphafold 2. […]

[2] = biological target: T2, Type III-Dv subunits co-expressed without Csx19 (Cas7-Cas5-Cas11, Cas7-2x and Cas7-insertion, with crRNA) (Synechocystis sp. PCC 6803); assay: His-tag affinity purification and SEC of the ΔCsx19 co-expression; SDS-PAGE
T2 construct: These are the subunits left beside His-tagged Cas10 when csx19 carries a nonsense mutation (pPF3089); they are grouped here only as the prey set of the ΔCsx19 pulldown; also called ΔCsx19 complex; ΔCsx19 type Type III-Dv complex
T2 sequence (chain, as listed by the source limits assumed, chain 1 of 3): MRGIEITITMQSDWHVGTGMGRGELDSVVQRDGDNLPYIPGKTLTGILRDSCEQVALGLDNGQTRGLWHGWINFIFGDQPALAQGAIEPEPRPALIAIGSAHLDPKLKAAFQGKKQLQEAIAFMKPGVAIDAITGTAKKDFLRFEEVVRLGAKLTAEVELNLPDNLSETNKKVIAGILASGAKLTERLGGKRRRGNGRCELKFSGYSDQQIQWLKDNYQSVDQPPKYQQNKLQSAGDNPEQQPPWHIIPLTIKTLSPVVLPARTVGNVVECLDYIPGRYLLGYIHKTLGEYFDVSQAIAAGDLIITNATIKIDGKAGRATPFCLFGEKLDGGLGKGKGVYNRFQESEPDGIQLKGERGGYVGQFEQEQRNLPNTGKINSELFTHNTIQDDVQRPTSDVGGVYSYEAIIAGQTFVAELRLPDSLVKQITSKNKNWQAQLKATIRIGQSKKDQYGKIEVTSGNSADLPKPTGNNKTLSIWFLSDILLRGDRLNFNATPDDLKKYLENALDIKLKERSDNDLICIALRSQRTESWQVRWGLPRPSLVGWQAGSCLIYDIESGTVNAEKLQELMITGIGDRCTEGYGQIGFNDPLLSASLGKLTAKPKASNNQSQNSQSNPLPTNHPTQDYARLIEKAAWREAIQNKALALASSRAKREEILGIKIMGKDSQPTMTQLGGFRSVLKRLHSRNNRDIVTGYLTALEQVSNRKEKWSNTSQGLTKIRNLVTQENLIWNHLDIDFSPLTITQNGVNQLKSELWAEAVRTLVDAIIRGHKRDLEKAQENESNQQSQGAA
T2 sequence (chain, as listed by the source limits assumed, chain 2 of 3): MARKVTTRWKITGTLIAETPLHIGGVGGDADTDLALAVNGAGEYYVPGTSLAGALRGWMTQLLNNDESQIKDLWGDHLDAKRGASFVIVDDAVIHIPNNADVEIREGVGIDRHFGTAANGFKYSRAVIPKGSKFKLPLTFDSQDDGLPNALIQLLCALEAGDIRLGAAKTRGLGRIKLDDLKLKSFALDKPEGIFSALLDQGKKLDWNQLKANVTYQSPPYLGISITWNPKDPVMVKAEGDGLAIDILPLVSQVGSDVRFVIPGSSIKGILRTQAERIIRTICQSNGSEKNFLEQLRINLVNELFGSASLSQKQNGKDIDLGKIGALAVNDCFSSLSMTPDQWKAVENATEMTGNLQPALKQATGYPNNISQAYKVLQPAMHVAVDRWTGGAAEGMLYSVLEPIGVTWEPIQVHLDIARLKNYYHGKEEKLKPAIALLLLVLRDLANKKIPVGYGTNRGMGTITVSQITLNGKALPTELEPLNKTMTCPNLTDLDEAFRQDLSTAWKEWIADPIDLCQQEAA
T2 sequence (chain, as listed by the source limits assumed, chain 3 of 3): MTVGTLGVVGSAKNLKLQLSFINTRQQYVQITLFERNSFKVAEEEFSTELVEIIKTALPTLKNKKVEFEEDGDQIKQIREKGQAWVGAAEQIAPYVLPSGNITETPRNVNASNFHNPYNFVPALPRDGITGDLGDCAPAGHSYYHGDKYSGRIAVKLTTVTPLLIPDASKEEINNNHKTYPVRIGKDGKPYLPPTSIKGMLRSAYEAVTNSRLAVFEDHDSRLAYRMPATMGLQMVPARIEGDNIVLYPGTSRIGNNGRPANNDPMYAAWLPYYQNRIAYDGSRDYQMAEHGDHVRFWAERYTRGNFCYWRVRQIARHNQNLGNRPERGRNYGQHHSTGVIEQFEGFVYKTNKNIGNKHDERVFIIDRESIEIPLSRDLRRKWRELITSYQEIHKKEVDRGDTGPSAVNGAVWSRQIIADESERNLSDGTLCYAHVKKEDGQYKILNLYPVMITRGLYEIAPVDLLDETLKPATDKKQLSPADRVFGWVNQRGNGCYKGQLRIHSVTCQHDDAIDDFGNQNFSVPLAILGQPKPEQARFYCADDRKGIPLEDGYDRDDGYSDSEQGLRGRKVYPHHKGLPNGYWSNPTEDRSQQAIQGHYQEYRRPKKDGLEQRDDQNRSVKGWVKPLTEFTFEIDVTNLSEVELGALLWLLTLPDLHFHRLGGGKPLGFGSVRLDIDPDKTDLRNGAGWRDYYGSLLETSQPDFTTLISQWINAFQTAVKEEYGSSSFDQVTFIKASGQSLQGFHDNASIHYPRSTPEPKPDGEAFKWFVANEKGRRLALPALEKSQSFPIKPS

[3] = biological target: T3, Cas6-2a of Synechocystis sp. PCC 6803 (Synechocystis sp. PCC 6803); assay: metal affinity (His6-Cas10) and size-exclusion co-purification from E. coli; SDS-PAGE and mass spectrometry
T3 construct: The Results say cas6-2a was cloned and expressed with the operon
T3 chain: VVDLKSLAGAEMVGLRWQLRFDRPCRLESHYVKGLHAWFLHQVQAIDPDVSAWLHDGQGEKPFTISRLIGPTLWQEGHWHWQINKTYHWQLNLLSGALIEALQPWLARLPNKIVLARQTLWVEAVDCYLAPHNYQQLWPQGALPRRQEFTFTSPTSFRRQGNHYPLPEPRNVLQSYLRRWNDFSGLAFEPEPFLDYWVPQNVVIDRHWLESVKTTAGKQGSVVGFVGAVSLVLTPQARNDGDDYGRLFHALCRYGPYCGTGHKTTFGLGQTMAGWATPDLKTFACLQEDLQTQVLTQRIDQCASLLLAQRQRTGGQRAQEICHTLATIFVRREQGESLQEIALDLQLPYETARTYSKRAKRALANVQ
Description: The sample was applied to a second HisTrap column; however, due to inefficient TEV cleavage, the complex unexpectedly bound the column and eluted with high imidazole. The complex was further purified by size exclusion chromatography (SEC) on a HiLoad 16/600 Superdex 200 column (GE Healthcare) equilibrated in SEC Buffer). Mutant Type III-Dv complexes were similarly expressed and purified, except TEV protease was omitted. Purified complexes were typically concentrated to 1.5 mg/ml using a centrifugal concentrator (Amicon; 100 kDa MWCO), aliquoted, and stored at −80° C.
Denaturing liquid chromatography mass spectrometry (LC-MS) was performed on a Dionex UltiMate 3000 nanoLC system coupled to a Thermo Orbitrap Fusion Lumos Tribrid mass spectrometer (San Jose, Ca). The trap column (3 cm) and analytical column (30 cm) were packed in-house with polymer reverse-phase (PLRP) packing material. Approximately 80 ng of the CRISPR complex were injected and subjected to reverse-phase chromatography, utilizing water with 0.1% formic acid as mobile phase A (MPA), and acetonitrile with 0.1% formic acid as mobile phase B (MPB). Forward trapping occurred for 5 minutes at 2% MPB at a flow rate of 5 μL/min at the trap column. Elution onto the analytical column (at 0.3 μL/min) occurred by increasing MPB to 10% over a 3-minute gradient followed by an increase to 35% MPB over 32 minutes. […]

B1: Cas10 subunit of the Synechocystis sp. PCC 6803 Type III-Dv CRISPR-Cas complex, with N-terminal His6 tag and TEV site (other)
chain: MFLVLIETSGNQHFIFSTNKLRENIGASELTYLATTEILFQGVDRVFQTNYYDQWSDTNSLNFLADSKLNPAIDDPKNNADIEILLATSGKAIALVKEEGKAKQLIKEVTKQALINAPGLEIGGIYVNCNWQDKLGVAKAVKEAHKQFEVNRAKRAGANGRFLRLPIAAGCSVSELPASDFDYNADGDKIPVSTVSKVKRETAKSAKKRLRSVDGRLVNDLAQLEKSFDELDWLAVVHADGNGLGQILLSLEKYIGEQTNRNYIDKYRRLSLALDNCTINAFKMAIAVFKEDSKKIDLPIVPLILGGDDLTVICRGDYALEFTREFLEAFEGQTETHDDIKVIAQKAFGVDRLSACAGISIIKPHFPFSVAYTLAERLIKSAKEVKQKVTVTNSSPITPFPCSAIDFHILYDSSGIDFDRIREKLRPEDNTELYNRPYVVTAAENLSQAQGYEWSQAHSLQTLADRVSYLRSEDGEGKSALPSSQSHALRTALYLEKNEADAQYSLISQRYKILKNFAEDGENKSLFHLENGKYVTRFLDALDAKDFFANANHKNQGE
notes: Whole gene amplified from Synechocystis genomic DNA and co-expressed in E. coli from pPF2434; The complex also holds a 37-nt crRNA; also called His6-TEV-Cas10; N-His6-tagged Cas10; not shown: TEV cleavage was inefficient, so
[1]
  binding result: binds
[2]
  binding result: no binding
[3]
  binding result: no binding
